This note sets out measurements from publication PMC5014761.

The target in the assay is Δ25 FLAG-MRNIP (human) (UniProt Q6NTE8). Nature of the assay: co-IP; 1 mg whole-cell extract (20 mM Tris-HCl pH 7.5, 150 mM NaCl, 1% Triton X-100, 1 mM DTT, 1 mM EDTA, Benzonase) with M2 anti-FLAG beads 16 hr at 4°C; eluted with FLAG peptide or by heating; immunoblot; HEK293 stable, tetracycline-inducible or transiently transfected cells; in Figure 2D cells exposed to the indicated doses of IR. (In general: Immunoblotting shows a protein as a band on a membrane.)
Sequence of UniProt Q6NTE8 (Q6NTE8 whole entry, stated change not applied): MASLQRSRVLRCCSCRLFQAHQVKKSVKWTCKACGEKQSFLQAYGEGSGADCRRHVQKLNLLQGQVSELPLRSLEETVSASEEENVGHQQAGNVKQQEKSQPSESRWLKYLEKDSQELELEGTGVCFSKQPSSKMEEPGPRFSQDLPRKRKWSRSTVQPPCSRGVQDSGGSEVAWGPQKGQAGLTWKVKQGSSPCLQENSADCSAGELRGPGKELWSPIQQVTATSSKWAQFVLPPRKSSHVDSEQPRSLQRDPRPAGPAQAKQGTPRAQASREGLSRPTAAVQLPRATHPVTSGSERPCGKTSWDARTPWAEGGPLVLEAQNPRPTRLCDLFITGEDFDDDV

The substance the MRN complex yielded a percent reduced binding compared to WT MRNIP of 50 to 70%.
